# In US6025179:
# Tested on: SnaBI restriction endonuclease (R.SnaBI) (Sphaerotilus natans)
# Experiment: cleavage_in_vitro
# Details: crude extract, 37 C, 15 min and 1 h; about 8x10^6
substance,measurement,value
T7 phage DNA (SnaBI substrate),activity (units/g wet cells),8e+06
